B1: DUSP5 (parent)
chain: YSEYPECCVDVKPISQEKIESERA
B2: NP_009172.2 (parent)
chain: LPALFTDLYSQEITAEEAREALP

Variants of: B1
Test: protein stability index of a GFP-peptide fusion (GPS, HEK-293T) (PSI 1-6); higher = more stable
Details: c terminus: a fixed tail appended

Protein stability index of substitutions, site by site:
Q16: E 4.33 | F 3.58 | G 4.06 | H 3.99 | I 3.9 | K 3.85 | L 4.19 | M 4.3 | N 4.59 | P 4.38 | R 4.34 | S 3.85 | T 4.03 | V 3.41 | W 2.83 | Y 3.37
E17: A 4.41 | C 3.01 | D 3.75 | F 3.43 | G 3.86 | H 3.82 | I 3.17 | K 3.21 | M 2.53 | N 3.61 | P 4.37 | Q 3.97 | R 2.95 | S 3.06 | T 3.89 | V 2.86 | W 2.78 | Y 3.1
K18: A 4.17 | C 3.1 | E 4.55 | G 3.39 | H 4.41 | I 4.02 | L 3.68 | M 4.3 | N 4.19 | P 3.84 | Q 4.87 | S 3.98 | T 4.52 | V 4.16 | W 3.73
I19: A 4.65 | E 4.69 | F 4.16 | G 4.34 | H 3.01 | K 4.9 | M 4.1 | N 4.61 | P 4.02 | Q 4.95 | T 4.55 | V 3.31 | W 4.24 | Y 3.1
E20: A 4.89 | C 4.31 | D 4.28 | F 3.56 | G 3.67 | H 4 | I 3.49 | K 4.02 | L 3.94 | M 2.8 | N 3.6 | P 3.78 | Q 3.65 | R 3.56 | S 3.97 | T 3.59 | V 2.78 | W 2.04 | Y 4.1
S21: A 4.36 | C 3.96 | D 3.47 | E 4.71 | F 4.11 | G 3.8 | H 4.58 | I 3.42 | K 4.49 | L 3.79 | M 3.72 | N 3.73 | P 4.29 | Q 4.1 | R 3.22 | T 4.55 | V 4.36 | W 3.61 | Y 3.76
E22: A 4.36 | C 3.51 | D 4.24 | F 3.6 | H 4 | I 3.54 | K 3.43 | L 2.27 | M 3.65 | N 3.59 | P 3.45 | Q 3.54 | R 3.18 | S 3.56 | T 4.17 | V 3.05 | W 2.88 | Y 2.58
R23: A 4.23 | C 4.98 | D 4.41 | E 4.39 | F 3.73 | G 4.42 | H 4.52 | I 4.24 | K 4.65 | L 4.18 | M 3.91 | N 4.34 | P 4.55 | Q 4.34 | S 4.38 | T 4.44 | V 3.88 | W 3.41 | Y 3.71
A24: D 4.45 | E 4.9 | F 2.43 | G 3.82 | H 3.73 | I 4.16 | K 3.82 | L 4.26 | N 4.1 | P 3.88 | Q 4.18 | V 3.89 | W 3.44 | Y 3

Variants of: B2
Test: as above
Details: c terminus: native

Protein stability index: each site, then its substitutions
E16: T 2.62
Q11: D 3.31
S10: T 2.38
A15: T 3.05
L8: W 3.27
A3: G 2.68
E17: Y 2.32
F5: S 5.37
D7: S 3.08 | L 2.61
A18: S 2.72
R19: D 3
L22: D 4.62 | C 2.65
I13: Y 2.69
